Where a name gives a salt, the structure may show the parent alone. Starred links: 1 amine or outer side, 2 acyl side, 3 side chain; linkers in the order of their positions; H or OH if unused. Positions of bridges follow the written chain, without caps; N, C: chain ends. Non-standard residues stand in square brackets, D forms with d. Residues, ends and D or L forms follow the SMILES beside them. Chains are numbered I, II in the order given. *: point of attachment. TATA = O=C(CC[*:1])N1CN(C(=O)CC[*:2])CN(C(=O)CC[*:3])C1; Dolaproine = CO[C@@H]([C@@H]1CCCN1)[C@@H](C)C(=O)O; Dil = CC[C@H](C)[C@H](NC)[C@@H](CC(=O)O)OC; 1Nal = N[C@@H](Cc1cccc2ccccc12)C(=O)O; X2 = O=C(CCCC(=O)[*:2])NCCC(=O)[*:1]; PABC = O=C(OCc1ccc(N[*:1])cc1)[*:2]; X1 = C[C@@H](N*)[C@@H](O)c1ccccc1; Hyp = O=C(O)[C@@H]1C[C@@H](O)CN1; hArg = N=C(N)NCCCC[C@H](N)C(=O)O; Cit = NC(=O)NCCC[C@H](N)C(=O)O; Pen = CC(C)(S)[C@H](N)C(=O)O; NMeV = CN[C@H](C(=O)O)C(C)C; Sar = CNCC(=O)O
Assay: Stability in plasma, SD rats
Assay type: in vitro ADME
Settings: Sprague-Dawley (SD), rat, 37° C.
Description: Test Example 9: Stability Analysis of the Compounds of the Present Invention in Plasma from Different Species
To test the stability of the compounds of the present invention in plasma from SD rats, Cynomolgus macaques, and humans.
The corresponding incubation plates, including T0, T10, T30, T60, T120, and T240 incubation plates, were added with a 2 μL working solution of the compound to be tested (100 μM). Three parallel wells were prepared for each sample. Then, 98 μL of blank plasma from SD rats, Cynomolgus macaques, and humans was added to the corresponding incubation plates to which the working solution had been added. All samples were incubated in a 37° C. water bath. […] At the end of each incubation time point, the corresponding incubation plate was removed, added with stop buffer, precipitated, and centrifuged for 20 minutes. Then, 150 μL of the supernatant was analyzed by the LC-MS/MS method. The concentration of the compound to be tested in the sample was semi-quantitatively determined by the liquid chromatography-tandem mass spectrometry (LC-MS/MS) method.

CC[C@H](C)[C@@H]([C@@H](CC(=O)N1CCC[C@H]1[C@H](OC)[C@@H](C)C(=O)N[C@H](C)[C@@H](O)c1ccccc1)OC)N(C)C(=O)[C@@H](NC(=O)[C@H](C(C)C)N(C)C(=O)OCc1ccc(NC(=O)[C@H](CCCNC(N)=O)NC(=O)[C@@H](NC(=O)CCCC(=O)NCCC(=O)N(C)CC(=O)N(C)CC(=O)N(C)CC(=O)N(C)CC(=O)N(C)CC(=O)N(C)CC(=O)N(C)CC(=O)N(C)CC(=O)N(C)CC(=O)N(C)CC(=O)N[C@H]2CCCCNC(=O)C[C@@H](C(=O)N[C@H]3CSCCC(=O)N4CN5CN(C4)C(=O)CCSC(C)(C)[C@H](NC(=O)[C@@H](CC(=O)O)NC(=O)[C@H](Cc4cccc6ccccc46)NC(=O)[C@@H]4CCCN4C3=O)C(=O)N[C@@H](CCSC)C(=O)N[C@@H](CCCCNC(=N)N)C(=O)N[C@@H](CC(=O)O)C(=O)N[C@@H](Cc3c[nH]c4ccccc34)C(=O)N[C@@H](CO)C(=O)N[C@@H]([C@@H](C)O)C(=O)N3CCC[C@H]3C(=O)N3C[C@H](O)C[C@H]3C(=O)N[C@@H](Cc3c[nH]c4ccccc34)C(=O)N[C@H](C(N)=O)CSCCC5=O)NC(=O)CN(C)C2=O)C(C)C)cc1)C(C)C [Acetate salt of PDC_2] (I: [Sar][Sar][Sar][Sar][Sar][Sar][Sar][Sar][Sar][Sar]K[Sar]DCP[1Nal][dD][Pen]M[hArg]DWSTP[Hyp]WC-NH2 / II: V[Cit][PABC][NMeV]V[Dil][Dolaproine]-X1; lactam I:11-I:13; linker I:14-I:18-I:28 via TATA; linker I:N-II:N via X2)
half-life at 2 μM: > 9.63 h
